To fix the notation:
B1: H6 flagella (polymeric flagellin) from E. coli O127:H6 (natural protein)
chain: MAQVINTNSLSLITQNNINKNQSALSSSIERLSSGLRINSAKDDAAGQAIANRFTSNIKGLTQAARNANDGISVAQTTEGALSEINNNLQRIRELTVQASTGTNSDSDLDSIQDEIKSRLDEIDRVSGQTQFNGVNVLAKDGSMKIQVGANDGQTITIDLKKIDSDTLGLNGFNVNGKGETANTAATLKDMSGFTAAAAPGGTVGVTQYTDKSAVASSVDILNAVAGADGNKVTTSADVGFGTPAAAVTYTYNKDTNSYSAASDDISSANLAAFLNPQARDTTKATVTIGGKDQDVNIDKSGNLTAADDGAVLYMDATGNLTKNNAGGDTQATLAKVATATGAKAATIQTDKGTFTSDGTAFDGASMSIDANTFANAVKNDTYTATVGAKTYSVTTGSAAADTAYMSNGVLSDTPPTYYAQADGSITTTEDAAAGKLVYKGSDGKLTTDTTSKAESTSDPLAALDDAISQIDKFRSSLGAVQNRLDSAVTNLNNTTTNLSEAQSRIQDADYATEVSNMSKAQIIQQAGNSVLAKANQVPQQVLSLLQG
B3: H48 flagella (polymeric flagellin) from commensal E. coli K12:O175:H48 (natural protein)
chain: MAQVINTNSLSLITQNNINKNQSALSSSIERLSSGLRINSAKDDAAGQAIANRFTSNIKGLTQAARNANDGISVAQTTEGALSEINNNLQRVRELTVQATTGTNSESDLSSIQDEIKSRLDEIDRVSGQTQFNGVNVLAKNGSMKIQVGANDNQTITIDLKQIDAKTLGLDGFSVKNNDTVTTSAPVTAFGATTTNNIKLTGITLSTEAATDTGGTNPASIEGVYTDNGNDYYAKITGGDNDGKYYAVTVANDGTVTMATGATANATVTDANTTKATTITSGGTPVQIDNTAGSATANLGAVSLVKLQDSKGNDTDTYALKDTNGNLYAADVNETTGAVSVKTITYTDSSGAASSPTAVKLGGDDGKTEVVDIDGKTYDSADLNGGNLQTGLTAGGEALTAVANGKTTDPLKALDDAIASVDKFRSSLGAVQNRLDSAVTNLNNTTTNLSEAQSRIQDADYATEVSNMSKAQIIQQAGNSVLAKANQVPQQVLSLLQG

Data set [1] concerns the molecule itself. The data set can be described thus: SEC. On the technique in general: SEC sorts molecules by how far they enter the pores of the column.
For data set [2], the target named is B1. The data set can be described thus: ELISA. A general note: An ELISA detects its analyte on a solid surface through an enzyme-linked reagent.
Data set [3] concerns the target B3. The data set can be described thus: ELISA.

With B1, the binding result in data set [1] is given as “binds”.

B2: recombinant human galectin-4 (natural protein)
chain: MAYVPAPGYQPTYNPTLPYYQPIPGGLNVGMSVYIQGVASEHMKRFFVNFVVGQDPGSDVAFHFNPRFDGWDKVVFNTLQGGKWGSEERKRSMPFKKGAAFELVFIVLAEHYKVVVNGNPFYEYGHRLPLQMVTHLQVDGDLQLQSINFIGGQPLRPQGPPMMPPYPGPGHCHQQLNSLPTMEGPPTFNPPVPYFGRLQGGLTARRTIIIKGYVPPTGKSFAINFKVGSSGDIALHINPRMGNGTVVRNSLLNGSWGSEEKKITHNPFGPGQFFDLSIRCGLDRFKVYANGQHLFDFAHRLSAFQRVDTLEIQGDVTLSYVQI
As for B2, the binding result in data set [2] and in data set [3] was “binds” throughout.
Take B3: in data set [1], the binding result is reported as “binds”.

For the origin of these results see publication doi:10.1101/2020.02.12.945204 (bioRxiv, 2020).
